This is an account of results in US20110038869A1.

Read-outs that look alike come from different tables or passages of the source.

The target of one experiment is CD32aECDHis (human) (UniProt P12318). Description: TR-FRET competition of unlabeled against labelled HuMab-KLH, Fc-mediated. For orientation: TR-FRET usually uses a lanthanide donor and a delayed reading to cut background.
Experiment [1] concerns the target CD32bECDHis (human) (UniProt P31994). The description is as above.
Experiment [2] addresses biotinylated CD32bECDHis (human) (UniProt P31994). Description: competition ELISA, competitor 063. For orientation: ELISA stands for enzyme-linked immunosorbent assay.
Experiment [3] has the same target. The experiment in a line: competition ELISA, competitor 028.
The target is the same in experiment [4]. The experiment in a line: competition ELISA, competitor 024.
Experiment [5] addresses CD32b on CD32b+ Daudi cells (Daudi-luc) (human) (UniProt P31994). The experiment in a line: flow cytometry on Daudi-luc cells. On the technique in general: A flow cytometer gives signals particle by particle.
For experiment [6], the target named is full length CD32b2 on transfected IIA1.6 cells (human) (UniProt P31994). Description: flow cytometry on IIA1.6-CD32b2 cells.
Experiment [7] concerns the target biotinylated CD32bECDHis (human) (UniProt P31994). Description: competition ELISA, competitor 026.
The target of experiment [8] is CD32b on CD32b+ Daudi cells (Daudi-luc) (human) (UniProt P31994). Description: cell-based or functional assay.
The target is the same in experiment [9]. Description: flow cytometry on JeKo-1 mantle cell lymphoma cells.
Experiment [10] has as its target CD32bECDHis (human) (UniProt P31994). Description: ELISA on coated CD32bECDHis.
For experiment [11] the target is unchanged. Description: SPR BIAcore 3000, antibody immobilized, CD32bECDHis analyte.
For experiment [12], the target named is full length CD32b on stably transfected IIA1.6 cells (human) (UniProt P31994). The experiment in a line: flow cytometry on IIA1.6-CD32b cells.
Experiment [13] has as its target CD32b on CD32b+ Daudi cells (Daudi-luc) (human) (UniProt P31994). The experiment in a line: cell-based or functional assay. The source holds these as a separate data set.
In experiment [14] the target is biotinylated CD32bECDHis (human) (UniProt P31994). Description: competition ELISA, competitor 016.
For experiment [15] the target is unchanged. The experiment in a line: competition ELISA, competitor 034.
Experiment [16] shares this target. The experiment in a line: competition ELISA, competitor 2B6.
Experiment [17] addresses full length CD32b1 on transfected IIA1.6 cells (human) (UniProt P31994). The experiment in a line: flow cytometry on IIA1.6-CD32b1 cells.
Experiment [18] concerns the target biotinylated CD32bECDHis (human) (UniProt P31994). Description: competition ELISA, competitor 022.
Experiment [19] has the same target. Description: competition ELISA, competitor 053.
For experiment [20] the target is unchanged. The experiment in a line: competition ELISA, competitor 020.
The target is the same in experiment [21]. Description: competition ELISA, competitor 038.
Experiment [22] addresses full length CD32b1 on transfected IIA1.6 cells (human) (UniProt P31994). The experiment in a line: flow cytometry on IIA1.6-CD32b1 against IIA1.6-CD32b2 cells.
Experiment [23] concerns the target CD32bECDHis (human) (UniProt P31994). The experiment in a line: TR-FRET competition against HuMab-KLH-AlexaFluor 647.

Sequence of biotinylated CD32bECDHis (human) (P31994 43-223 limits assumed, form in doubt): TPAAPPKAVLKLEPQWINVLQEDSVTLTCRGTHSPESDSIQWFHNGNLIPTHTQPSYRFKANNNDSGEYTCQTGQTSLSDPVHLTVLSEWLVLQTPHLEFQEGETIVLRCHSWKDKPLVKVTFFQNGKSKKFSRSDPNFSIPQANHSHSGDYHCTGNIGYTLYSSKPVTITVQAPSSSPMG
Sequence of CD32bECDHis (human) (P31994 43-223 limits assumed, form in doubt): as above
Sequence of CD32b on CD32b+ Daudi cells (Daudi-luc) (human) (P31994 43-310): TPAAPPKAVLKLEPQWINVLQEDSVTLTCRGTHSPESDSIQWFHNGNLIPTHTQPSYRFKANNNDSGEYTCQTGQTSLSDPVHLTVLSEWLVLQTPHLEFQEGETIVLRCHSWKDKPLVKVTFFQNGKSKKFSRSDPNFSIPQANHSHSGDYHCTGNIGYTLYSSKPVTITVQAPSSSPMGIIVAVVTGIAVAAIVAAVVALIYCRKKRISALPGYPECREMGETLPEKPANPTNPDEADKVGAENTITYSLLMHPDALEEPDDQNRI
Sequence of full length CD32b1 on transfected IIA1.6 cells (human) (P31994 43-310): as above
Sequence of CD32aECDHis (human) (P12318 34-215 limits assumed, form in doubt): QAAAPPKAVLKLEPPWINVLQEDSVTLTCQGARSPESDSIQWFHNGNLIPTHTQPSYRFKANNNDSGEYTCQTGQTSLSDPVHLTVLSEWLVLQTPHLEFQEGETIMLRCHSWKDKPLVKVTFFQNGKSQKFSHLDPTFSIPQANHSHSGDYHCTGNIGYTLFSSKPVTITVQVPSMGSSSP
Sequence of full length CD32b on stably transfected IIA1.6 cells (human) (P31994 43-310): as the sequence (P31994 43-310) above
Sequence of full length CD32b2 on transfected IIA1.6 cells (human) (P31994 other isoform, or with tags, fused parts or gaps): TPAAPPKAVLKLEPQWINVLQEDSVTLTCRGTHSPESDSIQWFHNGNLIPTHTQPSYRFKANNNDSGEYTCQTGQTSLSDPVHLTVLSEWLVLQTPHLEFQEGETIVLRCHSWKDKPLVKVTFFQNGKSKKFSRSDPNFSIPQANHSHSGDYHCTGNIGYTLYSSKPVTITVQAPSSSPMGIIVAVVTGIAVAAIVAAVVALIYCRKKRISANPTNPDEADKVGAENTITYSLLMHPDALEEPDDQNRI

Broadly, the IC50 is the concentration needed to halve the response being measured. The low end stands for greater potency, the high end for weaker potency. For “HuMab-KLH (a human monoclonal antibody against KLH (keyhole limpet haemocyanin))”, the values for the IC50 in the experiment with CD32aECDHis (human) and with CD32bECDHis (human) [1] were 134 nM and 417 nM, respectively.
Usually EC50 stands for the concentration giving half of the maximal effect. Read a high EC50 as weaker potency. Broadly, the Kd is a measure of binding affinity in units of concentration. For orientation: koff means the first-order rate constant of dissociation. Lower therefore signals a long-lived complex. Usually kon stands for a measure of how fast the partners come together. The low end stands for slow association, the high end for fast association. Consider chimeric anti-CD32b antibody 2B6, for which the % residual binding was determined as 181% in experiment [2]; 165% in experiment [3]; 174% in [4]; 168% in experiment [7]; 105% in [14]; 185% in [15]. Besides, the % residual binding in [16] worked out at 20%; in experiment [18] it was 179%; in experiment [19], 185%; in experiment [20], 163%; in [21], 113%. In addition, the half-maximal effective concentration (EC50) in [5] is 0.1 nM; in [6], 0.19 nM; in experiment [9], 0.34 nM; with CD32bECDHis (human) [10] it was 1.24 nM; in experiment [12], 1.49 nM; in experiment [17], 0.24 nM. Further, the EC50 (nM) in ADCC, lysis of 51Cr-labelled Daudi cells by PBMC in [8] came to 0.25 nM; in [13], 0.13 nM. Also, the dissociation constant Kd with CD32bECDHis (human) [11] was 0.3 nM. This substance gave a koff in the experiment with CD32bECDHis (human) [11] of 0.00087 s⁻¹. For the same substance, the kon in the experiment with CD32bECDHis (human) [11] was determined as 2.61e+06 M⁻¹ s⁻¹. For the same substance, the Ratio EC50 (CD32b1)/EC50(CD32b2) in [22] amounted to 1.27. The substance further came in with an IC50 with CD32bECDHis (human) [23] of 0.57 nM.
